# Test results reported in article PMC12065222.
# Legend:
# [1] = target: PD-1 on primary human CD8+ T cells (human (endogenous in primary T cells of donors)) (UniProt Q15116)
# [2] = target: PD-1 on IcAR-PD-1 cells (Immune Checkpoint Artificial Reporter overexpressing PD-1) (human) (UniProt Q15116)
# [3] = target: PD-1 on IcAR-PD-1 cells (Immune Checkpoint Artificial Reporter overexpressing PD-1) (human) (UniProt Q15116); remark: listed apart in the source
# [4] = target: PD-1 on primary human CD8+ T cells (human (endogenous in primary T cells of donors)) (UniProt Q15116); remark: listed apart in the source
# [5] = target: PD-1 on IcAR-PD-1 cells (Immune Checkpoint Artificial Reporter overexpressing PD-1) (human) (UniProt Q15116); remark: listed apart in the source
# [6] = target: PD-1 on IcAR-PD-1 cells (Immune Checkpoint Artificial Reporter overexpressing PD-1) (human) (UniProt Q15116); remark: listed apart in the source
# [7] = PD-L1 ELISA of cell lysates, MDA-MB231 and MCF7; settings: glycan lost; control: WT PD-L1
# [8] = soluble PD-L1 ELISA of supernatants, MDA-MB231 and MCF7; settings: glycan lost; control: WT PD-L1
# [9] = total-cellular/membrane PD-L1 ratio, flow cytometry, fixed MCF7; settings: glycan lost; control: WT PD-L1, MCF7
# [10] = surface PD-L1 flow cytometry, MDA-MB231; settings: glycan lost; control: WT PD-L1, MDA-MB231
# [11] = total-cellular/membrane PD-L1 ratio, flow cytometry, fixed MDA-MB231; settings: glycan lost; control: WT PD-L1, MDA-MB231
# [12] = surface PD-L1 flow cytometry, MCF7; settings: glycan lost; control: WT PD-L1, MCF7
# [13] = IcAR-PD-1 mIL-2 with ICBs, A375 and A549 cells; settings: glycan lost; control: WT PD-L1
# [14] = EV-bound PD-L1 ELISA after ultracentrifugation; settings: glycan lost; control: WT PD-L1
# [15] = target: PD-1 on IcAR-PD-1 cells (Immune Checkpoint Artificial Reporter overexpressing PD-1) (human) (UniProt Q15116); remark: listed apart in the source
substance,measurement,setting,value
PD-L1 N35A glycosylation mutant (from UniProt Q9NZQ7 19-290) (ligand),percent lysis of MCF7 target cells by PBMCs (killing assay),[1],3.8%
same,percent lysis of MDA-MB231 target cells by PBMCs (killing assay),[1],12.2%
same,"percent blocking of the mIL-2 signal of IcAR-PD-1 cells by Cemiplimab (anti-PD-1, 10 µg/mL), fixed MCF7 cells",[2],53%
same,"percent blocking of the mIL-2 signal of IcAR-PD-1 cells by Cemiplimab (anti-PD-1, 10 µg/mL), fixed MDA-MB231 cells",[2],19.6%
same,"percent blocking of the mIL-2 signal of IcAR-PD-1 cells by Nivolumab (anti-PD-1, 10 µg/mL), fixed MCF7 cells",[2],98.6%
same,"percent blocking of the mIL-2 signal of IcAR-PD-1 cells by Nivolumab (anti-PD-1, 10 µg/mL), fixed MDA-MB231 cells",[2],83.2%
same,"percent blocking of the mIL-2 signal of IcAR-PD-1 cells by Pembrolizumab (anti-PD-1, 10 µg/mL), fixed MCF7 cells",[2],100%
same,"percent blocking of the mIL-2 signal of IcAR-PD-1 cells by Pembrolizumab (anti-PD-1, 10 µg/mL), fixed MDA-MB231 cells",[2],91.6%
same,"percent blocking of the mIL-2 signal of IcAR-PD-1 cells by the anti-PD-1 antibody Nivolumab (1.5-40 µg/mL), MCF7 cells",[3],> 50%
same,percent of CD107a+ cells among CD8+ PD-1+ TCM cells (degranulation) after 4 h co-culture of anti-hCD3-activated PBMCs with MCF7 cells,[4],3.1%
same,percent of CD107a+ cells among CD8+ PD-1+ TCM cells (degranulation) after 4 h co-culture of anti-hCD3-activated PBMCs with MDA-MB231 cells,[4],3.7%
PD-L1 Nx4 mutant (all four N-glycosylation sites replaced by alanine) (from UniProt Q9NZQ7 19-290) (ligand),percent lysis of MCF7 target cells by PBMCs (killing assay),[1],7%
same,percent lysis of MDA-MB231 target cells by PBMCs (killing assay),[1],39.1%
same,percent of CD107a+ cells among CD8+ PD-1+ TCM cells (degranulation) after 4 h co-culture of anti-hCD3-activated PBMCs with MCF7 cells,[4],6.1%
same,percent of CD107a+ cells among CD8+ PD-1+ TCM cells (degranulation) after 4 h co-culture of anti-hCD3-activated PBMCs with MDA-MB231 cells,[4],10.3%
same,"percent blocking of the mIL-2 signal of IcAR-PD-1 cells by anti-PD-1 antibodies Pembrolizumab, Nivolumab, Cemiplimab, all concentrations, MDA-MB231 and MCF7 cells",[5],100%
same,"mIL-2 response of IcAR-PD-1 cells incubated 24 h with formalin-fixed MCF7 cells, no antibody; fold reduction against PD-L1WT (fold reduction)",[6],22
same,"mIL-2 response of IcAR-PD-1 cells incubated 24 h with formalin-fixed MDA-MB231 cells, no antibody; fold reduction against PD-L1WT (fold reduction)",[6],10
PD-L1: N35A,expression_or_secretion,[7],no change
same,expression_or_secretion,[8],"increases, decreased by approximately 35% in MDA-MB231 PD-L1N35A cells and about 45% in MCF7 PD-L1N35A cells"
same,localisation_or_trafficking,[9],no change
same,"expression_or_secretion, fold_change",[10],no change
same,"localisation_or_trafficking, fold_change",[11],"no change, a slight increase in total-cellular PD-L1 levels was observed in PD-L1N35A mutant MDA-MB231 cells"
same,"expression_or_secretion, fold_change",[12],no change
same,other: antibody blockade of PD-L1/PD-1 interaction,[13],decreases
same,expression_or_secretion,[14],increases
PD-L1: N192A,"expression_or_secretion, fold_change",[10],no change
same,"expression_or_secretion, fold_change",[12],no change
PD-L1: N200A,"expression_or_secretion, fold_change",[10],no change
same,"expression_or_secretion, fold_change",[12],no change
PD-L1: N219A,"expression_or_secretion, fold_change",[10],no change
same,"expression_or_secretion, fold_change",[12],no change
WT PD-L1 (programmed death-ligand 1) (from UniProt Q9NZQ7 19-290),"concentration of the anti-PD-1 antibody Pembrolizumab that completely blocked the mIL-2 signal of IcAR-PD-1 cells, MDA-MB231 and MCF7 cells",[15],20 µg/mL
